Data reported in patent US20260274983A1 (MODERNATX, published 2026).

T1: human BCMA (human, UniProt Q02223 1-184)
T1 construct: whole, on cells; Human is stated only for CHO-HuBCMA; also called HuBCMA; B-cell maturation antigen
T1 sequence (looked up): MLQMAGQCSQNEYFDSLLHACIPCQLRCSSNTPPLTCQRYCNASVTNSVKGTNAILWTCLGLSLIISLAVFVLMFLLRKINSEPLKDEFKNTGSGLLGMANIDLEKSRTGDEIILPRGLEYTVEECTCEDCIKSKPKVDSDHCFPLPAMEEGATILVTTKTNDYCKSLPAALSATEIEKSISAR

T2: CD38 (UniProt P28907 1-300, limits assumed)
T2 construct: whole, on cells; also called CD38 on RPMI8226 cells; CD38 on H929 cells
T2 sequence (looked up): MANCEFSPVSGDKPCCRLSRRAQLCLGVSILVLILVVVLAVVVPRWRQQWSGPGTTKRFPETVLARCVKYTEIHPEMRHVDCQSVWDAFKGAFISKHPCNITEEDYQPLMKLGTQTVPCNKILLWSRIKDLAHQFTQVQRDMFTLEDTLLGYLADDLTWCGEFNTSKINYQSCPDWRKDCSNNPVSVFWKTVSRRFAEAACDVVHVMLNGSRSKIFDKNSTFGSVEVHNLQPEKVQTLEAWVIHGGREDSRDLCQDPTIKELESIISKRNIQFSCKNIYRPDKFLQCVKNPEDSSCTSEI


Key:
human BCMA = biological target: T1, human BCMA; assay: FACS on H929 cells, Fc formatted
CD38 [1] = biological target: T2, CD38; assay: FACS on RPMI8226 cells, VHH-His
CD38 [2] = biological target: T2, CD38; assay: FACS on H929 cells, VHH-His

Row | Binder | EC50 (human BCMA) [nM] | EC50 (CD38 [1]) [nM] | EC50 (CD38 [2]) [nM]
1 | BCMA-VHH1 (Fc fusion, not shown: Fc of the Fc formatted construct) AVQLVDSGGGLVTAGDSLTLSCVASGRTLSPYTAGWFRQAPGREREFVALITARGDWTSYSDSVKGRFTISRDNAKNTIYLQMNSLEPEDTALYYCVRDLLGRDDYWGQGTQVTVSS | 78 |  | 
2 | CD38-VHH2 (VHH) VHH: QVQLVESGGGLVQPGGSLRLSCAASGFIFSDKVMSWVRQAPGKGREWVSTITPGGTATSYTESVKGRFTISRDNAKNTLYLQMNNLKPDDTALYYCRIGGPGGRYDNWGQGTQVTVSS |  | 1.01 | 6.14
3 | BCMA-VHH16 (Fc fusion, not shown: Fc of the Fc formatted construct) QVKLEESGGGLVQAGGSLRLSCAASGHTFSNSAMGWIRQAPGKEREFVAAISLNGGNTHYAESVKGRFAISRDNAKNTMYLQMNSLKPEDTAVYYCATLGFASWGQGTQVTVSS | 41.8 |  | 
4 | CD38-VHH1 (VHH) VHH: QVQLVESGGGLVQPGDSLRLSCAASGFILDTYSVAWFRQAPGKEREGVSCISSRDGNTFYSDSVKGRFTISRDNAKNTVYLQMNSLKSEDTAVYTCAAGAQAHCTIFTSYFNSDYYRRYNYWGQGTQVTVSS |  | < 1 | 4.43
5 | BCMA-VHH11 (Fc fusion, not shown: Fc of the Fc formatted construct) QVQLVDSGGGLVQPGGSLRLSCAASGFTFSSYWMYWVRQAPGKGLEWVSAINTDGDSTYYADSVKGRFTVSRDVAGNMIYLQMTNLKPEDTAVYTCAAIVTRSDGHQYDYWGRGTQVTVSV | 45.9 |  | 
6 | BCMA-VHH13 (Fc fusion, not shown: Fc of the Fc formatted construct) QVQLVDSGGRLVQAGDSLRLSCSASGFTFGSYWMFWVRQAPGKGLEWVSAIDTSGGHVYYGDSVNGRFTISRDNAKNTLYLQMNSLKPEDTALYYCARVENTWESIYWGQGTTVTVSS | 15.5 |  | 
7 | BCMA-VHH20 (Fc fusion, not shown: Fc of the Fc formatted construct) QVQLVESGGGLVQPGGSLRLSCAASGFTFSNYAMIWVRQAPGKGLEWVSSINANSDTTAYSDSVKGRFAISRDNARNTLYLQMNSLKPEDTAVYFCVSDSYIGGLYATYVYWGQGTQVTVSS | 83.4 |  | 
8 | CD38-VHH3 (VHH) VHH: QVQLVESGGGLVQAGGSLTLSCAASRSIFEINTMTMGWYRQAPGKQRELIAASRGATTNYADSVKGRFTISRDNAKNTVYLQMNSLKPEDTAVYYCSADRYGFGYGDNDYWGQGTQVTVSS |  | 0.35 | 1.36
9 | BCMA-VHH7 (Fc fusion, not shown: Fc of the Fc formatted construct) EVQLVDSGGGLVQAGGSLRLSCAASGSTFSRYAMGWIRQAPGKEREFVAAISWSGGSTYYADSVKGRFTISRDVAKNTVSLQMNSLKPEDAGVYFCFGDIIRSGERSDYEYWGQGTRVTVTS | 268 |  | 
10 | CD38-VHH5 (VHH) VHH: QVQLVESGGGLVQTGGSLRLSCVASGAIVSAESMGWYRQAPGNQRELVAEIISGSKSNYGESVKGRFTISRDNAENTVYLQMNSVKPEDTAVYYCKRTERIWTNNPQVYWGQGTQVTVSS |  | 71.3 | 
11 | BCMA-VHH3 (Fc fusion, not shown: Fc of the Fc formatted construct) QVQLVESGGGLVQAGGSLRLSCAASGSIFAYHVMGWYRQAPGKQRELVALITSGGSTNYTDSVKGRFTISRDNAKNTVYLQMNSLKPEDTAVYYCAIGYYSGSYYWERSGDYWGQGTQVTVSS | 11 |  | 
12 | BCMA-VHH17 (Fc fusion, not shown: Fc of the Fc formatted construct) QVQLVESGGGLVQAGGSLRLSCAASGRTFSGYTMAWFRQAPGSEREFVAAAVGSDGSTYYVDSVKGRFTMSRDSAKNTVYLMMTSLQPVDSAVYFCVKLDSGAWSLAEWGQGTQVTVSS | 1.01 |  | 
13 | BCMA-VHH9 (Fc fusion, not shown: Fc of the Fc formatted construct) QVKLEESGGGFVQPGGSLRLSCAASGFTYSSYWMHWVRQAPGKGLEWVSGISTGGDTTDTYYADSVKGRFTISRDNAKNTLYLQMNSLKPEDTAVYYCVALNLWGTDLEHDYWGRGTQVTVSS | 43.4 |  | 
